Source: patent US20230321287A1, “RADIOLABELLED GRPR-ANTAGONIST FOR USE AS THERAGNOSTIC” (NOVARTIS AG, priority 2019, published 2023)

Assay: clinical
Settings: for tissue uptake at 2 h / tissue uptake at 4 h / tissue uptake at 0.25 h / tissue uptake at 1 h: human, Relative radiotracer uptake
Text: The primary objective was to characterize preliminary targeting properties of [68Ga] NeoB in patients with malignancies known to overexpress GRPR. The primary efficacy endpoints were: • Number and location of tumor lesions detected by [68Ga]-NeoBOMB1 overall and for each tumor type • Calculation of the ratio tumor/background standard uptake value (SUV) and %injected dose per gram of tissue (ID/g) and calculation of absorbed dose (mGy/MBq) in tumor overall and for each tumor type.
Accordingly, highest relative tracer uptake following administration of a bombesin antagonist is expected in pancreas, kidney, and liver (Roivainen et al, 2013).

SMILES: CC(C)CC(CC(C)C)NC(=O)[C@H](Cc1cnc[nH]1)NC(=O)CNC(=O)[C@@H](NC(=O)[C@H](C)NC(=O)[C@H](Cc1c[nH]c2ccccc12)NC(=O)[C@H](CCC(N)=O)NC(=O)[C@@H](Cc1ccccc1)NC(=O)COCC(=O)Nc1ccc(CNC(=O)CN2CCN(CC(=O)O)CCN(CC(=O)O)CCN(CC(=O)O)CC2)cc1)C(C)C [[68Ga]-NeoB, metal not drawn]
- tissue uptake at 2 h (tumor lesion T3-liverL, total radioactivity, patient FR01-009, 120 min/123.9 min actual): 0.00984 %ID/g
- tissue uptake at 4 h (tumor lesion T3-liverL, total radioactivity, patient FR01-009, 240 min/207.9 min actual): 0.0178 %ID/g
- tissue uptake at 0.25 h (tumor lesion T4-liverR1, total radioactivity, patient FR01-009, tumor lesion T4-liverR1, 15 min/17.8 min actual): 0.013 %ID/g
- tissue uptake at 1 h (tumor lesion T4-liverR1, total radioactivity, patient FR01-009, tumor lesion T4-liverR1, 60 min/60.7 min actual): 0.014 %ID/g
- tissue uptake at 2 h (tumor lesion T4-liverR1, total radioactivity, patient FR01-009, tumor lesion T4-liverR1, 120 min/123.9 min actual): 0.0153 %ID/g
- tissue uptake at 4 h (tumor lesion T4-liverR1, total radioactivity, patient FR01-009, tumor lesion T4-liverR1, 240 min/207.9 min actual): 0.0116 %ID/g
- tissue uptake at 0.25 h (tumor lesion T5-liverR2, total radioactivity, patient FR01-009, tumor lesion T5-liverR2, 15 min/17.8 min actual): 0.015 %ID/g
- tissue uptake at 1 h (tumor lesion T5-liverR2, total radioactivity, patient FR01-009, tumor lesion T5-liverR2, 60 min/60.7 min actual): 0.0193 %ID/g
- tissue uptake at 2 h (tumor lesion T5-liverR2, total radioactivity, patient FR01-009, tumor lesion T5-liverR2, 120 min/123.9 min actual): 0.022 %ID/g
- tissue uptake at 4 h (tumor lesion T5-liverR2, total radioactivity, patient FR01-009, tumor lesion T5-liverR2, 240 min/207.9 min actual): 0.0212 %ID/g
- tissue uptake at 0.25 h (tumor lesion T6-sacrumL, total radioactivity, patient FR01-009, 15 min/17.8 min actual): 0.00315 %ID/g
- tissue uptake at 1 h (tumor lesion T6-sacrumL, total radioactivity, patient FR01-009, 60 min/60.7 min actual): 0.00289 %ID/g
- tissue uptake at 2 h (tumor lesion T6-sacrumL, total radioactivity, patient FR01-009, 120 min/123.9 min actual): 0.00254 %ID/g
- tissue uptake at 4 h (tumor lesion T6-sacrumL, total radioactivity, patient FR01-009, 240 min/207.9 min actual): 0.00188 %ID/g
- tissue uptake at 0.25 h (tumor lesion T7-liverP, total radioactivity, patient FR01-009, 15 min/17.8 min actual): 0.0122 %ID/g
- tissue uptake at 1 h (tumor lesion T7-liverP, total radioactivity, patient FR01-009, 60 min/60.7 min actual): 0.0118 %ID/g
- tissue uptake at 2 h (tumor lesion T7-liverP, total radioactivity, patient FR01-009, 120 min/123.9 min actual): 0.0124 %ID/g
- tissue uptake at 4 h (tumor lesion T7-liverP, total radioactivity, patient FR01-009, 240 min/207.9 min actual): 0.0108 %ID/g
- tissue uptake at 0.25 h (tumor lesion T8-liverR, total radioactivity, patient FR01-009, 15 min/17.8 min actual): 0.0108 %ID/g
- tissue uptake at 1 h (tumor lesion T8-liverR, total radioactivity, patient FR01-009, 60 min/60.7 min actual): 0.00961 %ID/g
- tissue uptake at 2 h (tumor lesion T8-liverR, total radioactivity, patient FR01-009, 120 min/123.9 min actual): 0.0109 %ID/g
- tissue uptake at 0.25 h (urinary bladder wall, total radioactivity, patient FR01-008, 15 min/38.6 min actual): 0.0313 %ID/g
- tissue uptake at 1 h (urinary bladder wall, total radioactivity, patient FR01-008, 60 min/62.6 min actual): 0.0426 %ID/g
- tissue uptake at 2 h (urinary bladder wall, total radioactivity, patient FR01-008, 120 min/123.2 min actual): 0.0214 %ID/g
- tissue uptake at 4 h (urinary bladder wall, total radioactivity, patient FR01-008, 240 min/221.1 min actual): 0.0179 %ID/g
- tissue uptake at 0.25 h (urinary bladder wall, total radioactivity, patient FR01-009, 15 min/17.8 min actual): 0.0268 %ID/g
- tissue uptake at 1 h (urinary bladder wall, total radioactivity, patient FR01-009, 60 min/60.7 min actual): 0.0648 %ID/g
- tissue uptake at 2 h (urinary bladder wall, total radioactivity, patient FR01-009, 120 min/123.9 min actual): 0.0405 %ID/g
- tissue uptake at 4 h (urinary bladder wall, total radioactivity, patient FR01-009, 240 min/207.9 min actual): 0.11 %ID/g
- Relative radiotracer uptake (patient FR01-008, Alveolar-interstitial (Lungs), 15 min/38.6 min actual): 2.1842E-03 %ID/g
- Relative radiotracer uptake (patient FR01-008, Alveolar-interstitial (Lungs), 60 min/62.6 min actual): 9.4759E-04 %ID/g
- Relative radiotracer uptake (patient FR01-008, Alveolar-interstitial (Lungs), 120 min/123.2 min actual): 6.7856E-04 %ID/g
- Relative radiotracer uptake (patient FR01-008, Alveolar-interstitial (Lungs), 240 min/221.1 min actual): 6.2082E-04 %ID/g
- Relative radiotracer uptake (patient FR01-008, Heart wall, 15 min/38.6 min actual): 6.0002E-03 %ID/g
- Relative radiotracer uptake (patient FR01-008, Heart wall, 60 min/62.6 min actual): 2.4054E-03 %ID/g
- Relative radiotracer uptake (patient FR01-008, Heart wall, 120 min/123.2 min actual): 1.6323E-03 %ID/g
- Relative radiotracer uptake (patient FR01-008, Heart wall, 240 min/221.1 min actual): 1.3018E-03 %ID/g
- Relative radiotracer uptake (patient FR01-008, Kidneys, 15 min/38.6 min actual): 6.8821E-03 %ID/g
- Relative radiotracer uptake (patient FR01-008, Kidneys, 60 min/62.6 min actual): 5.7654E-03 %ID/g
- Relative radiotracer uptake (patient FR01-008, Kidneys, 120 min/123.2 min actual): 2.3856E-03 %ID/g
- Relative radiotracer uptake (patient FR01-008, Kidneys, 240 min/221.1 min actual): 1.4872E-03 %ID/g
- Relative radiotracer uptake (patient FR01-008, Spleen, 240 min/221.1 min actual): 1.2014E-03 %ID/g
- Relative radiotracer uptake (patient FR01-008, tumor lesion T1-Chest, 15 min/38.6 min actual): 3.4664E-03 %ID/g
- Relative radiotracer uptake (patient FR01-008, tumor lesion T1-Chest, 60 min/62.6 min actual): 2.1832E-03 %ID/g
- Relative radiotracer uptake (patient FR01-008, tumor lesion T1-Chest, 120 min/123.2 min actual): 1.4935E-03 %ID/g
- Relative radiotracer uptake (patient FR01-008, tumor lesion T1-Chest, 240 min/221.1 min actual): 1.2884E-03 %ID/g
- Relative radiotracer uptake (patient FR01-008, tumor lesion T2-Left rib, 15 min/38.6 min actual): 3.8441E-03 %ID/g
- Relative radiotracer uptake (patient FR01-008, tumor lesion T2-Left rib, 60 min/62.6 min actual): 2.5064E-03 %ID/g
- Relative radiotracer uptake (patient FR01-008, tumor lesion T2-Left rib, 120 min/123.2 min actual): 1.7251E-03 %ID/g
- Relative radiotracer uptake (patient FR01-008, tumor lesion T2-Left rib, 240 min/221.1 min actual): 1.6681E-03 %ID/g
- Relative radiotracer uptake (patient FR01-008, tumor lesion T3-Spine, 15 min/38.6 min actual): 4.6895E-03 %ID/g
- Relative radiotracer uptake (patient FR01-008, tumor lesion T3-Spine, 60 min/62.6 min actual): 2.2489E-03 %ID/g
- Relative radiotracer uptake (patient FR01-008, tumor lesion T3-Spine, 120 min/123.2 min actual): 1.8497E-03 %ID/g
- Relative radiotracer uptake (patient FR01-008, tumor lesion T3-Spine, 240 min/221.1 min actual): 1.9539E-03 %ID/g
